The target of experiment [1] is TSHR (full length) coated on tubes (human) (UniProt P16473). Description: inhibition of 125I-K1-18 Fab (competitor) binding to TSHR coated tubes; test sample 10 µg/mL in assay buffer.
For experiment [2], the target named is TSH receptor (TSHR), full length human, coated on tubes (human) (UniProt P16473). Description: inhibition of 125I-K1-18 IgG binding to TSHR coated tubes; competitor 125I-K1-18 IgG; sample at 1 µg/mL in assay buffer.
Experiment [3] has as its target TSHR (full length) coated on tubes (human) (UniProt P16473). Description: inhibition of 125I-K1-18 Fab (competitor) binding to TSHR coated tubes; test sample 1 µg/mL in HBD serum.
Experiment [4] has as its target TSH receptor (full length human TSHR) (human) (UniProt P16473). Briefly: competition ELISA: inhibition of M22 Fab-peroxidase (competitor) binding to TSHR coated wells; test sample at 0.1 µg/mL diluted in HBD serum pool. (An ELISA detects its analyte on a solid surface through an enzyme-linked reagent.)
The target of experiment [5] is TSH receptor (TSHR) coated on tubes (human) (UniProt P16473). Briefly: inhibition of 125I-K1-70 IgG binding to TSHR coated tubes; negative control 100 µg/mL in assay buffer.
For experiment [6], the target named is TSHR (full length) coated on tubes (human) (UniProt P16473). Description: inhibition of 125I-K1-18 Fab (competitor) binding to TSHR coated tubes; negative control 0.01 µg/mL in HBD serum.
For experiment [7], the target named is TSHR with Trp258 mutated to Ala, expressed in CHO cells (human) (UniProt P16473). Briefly: cell-based or functional assay.
The target of experiment [8] is wild type TSHR (human TSH receptor) expressed in CHO cells (human) (UniProt P16473). Briefly: cell-based or functional assay.
The target of experiment [9] is human TSH receptor (full length) coated on ELISA plate wells (human) (UniProt P16473). Description: TSH-biotin binding inhibition ELISA, TSHR coated wells; 1 µg/mL in HBD serum pool; negative control MAb.
The target of experiment [10] is thyroid stimulating hormone receptor (TSHR), full length human TSHR (human) (UniProt P16473). Briefly: TSH-biotin competition ELISA, TSHR coated wells; negative control, 10 µg/mL in assay buffer.
Experiment [11] addresses TSHR (thyroid stimulating hormone receptor), full length human (human) (UniProt P16473). Description: negative control; competitor ^125I-K1-70 IgG, TSHR coated tubes; 0.01 µg/mL in HBD.
Experiment [12] has as its target human thyroid stimulating hormone receptor (TSHR), full length (human) (UniProt P16473). Description: 125I-K1-18 Fab competition, TSHR coated tubes; 10 µg/mL in assay buffer.

With 9D33 IgG (antibody), the Inhibition of binding (%) in experiment [1] worked out at 69.5%; in [2] it was 63%; in [3] it was 64.8%; in experiment [4] it was 24.1%.
Turning to 5B3 IgG (antibody), the Inhibition of binding (%) in experiment [5] worked out at 15.2%. The Inhibition of binding (%) in experiment [6] was -8.6%. In [7], the % inhibition of TSH stimulation; 5B3 10 µg/mL amounted to 15%, the % inhibition of TSH stimulation; 5B3 100 µg/mL worked out at 4%, the Cyclic AMP produced; 5B3 10 µg/mL + TSH 3 ng/mL was found to be 50.7 pmol/mL and the Cyclic AMP produced; 5B3 100 µg/mL + TSH 3 ng/mL was found to be 57.6 pmol/mL. In addition, in [7], the Mutated/wild type (%) of cyclic AMP produced; 5B3 10 µg/mL + TSH 3 ng/mL was found to be 75% and the Mutated/wild type (%) of cyclic AMP produced; 5B3 100 µg/mL + TSH 3 ng/mL was determined as 79%. In [8], the Cyclic AMP produced; 5B3 10 µg/mL + TSH 3 ng/mL stood at 67.7 pmol/mL and the Cyclic AMP produced; 5B3 100 µg/mL + TSH 3 ng/mL stood at 72.8 pmol/mL. The % inhibition of TSH-biotin binding in experiment [9] came to 8%. For the same molecule, the Inhibition of binding (%) in experiment [10] is -8.4%. For the same molecule, in experiment [11], the Inhibition of binding (%) is -5.8%.

B1: 5C9 IgG (antibody, from another filing, V domains shown)
VH: EVQLVESGGGLIQPGGSLRLSCAASGFTVSSNYMSWVRQAPGKGLEWVSVTYSGGSTSYADSVKGRFTISRDNSKNTLYLQMNSLRAEDTAVYYCARGGRYCSSISCYARSGCDYWGQGTLVTVSS
VL: AIQMTQSPSSLSASVGDRVTITCRASQSISNYLNWYQQKPGKAPKLLIYAASSLQSGVPSRFSGSGSGTDFTLTISSLQPEDFATYYCQQSYSSPSTTFGQGTKLEIK
Turning to B1, in [12], the Inhibition of binding (%) was 63.8%.

The record behind these values is patent publication US20110300138A1 (published 2011).
